Results from patent US8501695B2, “Tissue kallikrein for the treatment of diseases associated with amyloid protein” (DiaMedica, Inc., priority 2007, dated 2013).

Experiments:
[1] = biological target: T1, Amyloid beta1-42 (hAPβ42 peptide) (Homo sapiens, UniProt P05067); test: Direct cleavage of amyloid beta, β-Amyloid1-42 ELISA; type: biochemical
T1 construct: Amyloid beta1-42 standard (from β-Amyloid1-42 ELISA, Human kit, Sigma BE0200); purchased Sigma BE0200
Description: Amyloid beta1-42 standard (from β-Amyloid1-42 ELISA, Human kit, Sigma BE0200) was reconstituted into 1.0 μg/mL as per kit instructions. A stock solution of tissue kallikrein (SEQ ID: 1) and approximately 0.5 molar equivalents of Soybean Trypsin Inhibitor (Sigma, T6522) was prepared in PBS and serially diluted in triplicate with a fixed concentration of hAPβ42 peptide at 500 pg/mL. Solutions were incubated for 3 and 18 hours respectively after which time additional protease inhibitors were added (1/100 dilution of protease inhibitor cocktail solution, Sigma P8340). As per kit instructions, 50 μL of the above samples were added and the ELISA plate incubated overnight at 4° C. The remaining steps of the ELISA plate development were followed as per kit instructions and then read using a multiwell ELISA plate reader at 450 nm. Percent cleavage was determined by: 100−[(Ave KLK1−Ave Blank)/(Ave Control−Ave Blank)×100]=% Cleavage Results

[2] = test system: amyloid fibrils (fAβ) from synthetic human amyloid protein Aβ1-42 or Aβ1-40; test: In vitro amyloid protein cleavage assay, digestion of fibrils, mass spectroscopy; type: biochemical; conditions: 37° C., 4 h to 5 days, mass spectra FIG. 1
Chain of amyloid fibrils (fAβ) from synthetic human amyloid protein Aβ1-42 or Aβ1-40 (P05067 672-711 limits assumed): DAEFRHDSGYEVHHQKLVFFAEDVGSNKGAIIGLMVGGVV
Description: Synthetic human amyloid protein Aβ1-42 or Aβ1-40 was dissolved in dimethyl sulfoxide (DMSO) (Sigma, St. Louis, Mo.) to a concentration of 5 mM, and is then diluted in MilliQ® water to a final concentration of […] immediately prior to use. To prepare amyloid fibrils (fAβ) 5 mM Aβ1-42 or Aβ1-40 in DMSO was diluted in 10 mM HCl to 100 μM (for Aβ1-42) or […] (for Aβ1-40), vortexed for 30 s, and was incubated at 37° C. for 5 days. KLK1 (Sigma) was used for digestion reactions in the following buffers: ECE, 0.1 M MES, 0.1 M NaCl (pH 6.0); IDE, 50 mM Tris, 1 M NaCl (pH 7.5); NEP, 0.1 M MES (pH 6.5); and MMP-9, 50 mM Tris-HCl (pH 7.5), 10 mM CaCl2, 150 mM NaCl, 0.05% Brij 35. It was incubated at 37° C. for 4 h to 5 days. After digestion, the reaction was analyzed by mass spectroscopy. The samples were added to 50 mM glycine (pH 9.2)/2 mM thioflavin T (ThT) (Sigma) at a final volume of up to 2 ml. […] However, in panel C, there is a clear peak at about 2423 M/Z (mass to charge ration), which is an indication of cleavage.

T1 sequence (P05067 672-713 limits assumed): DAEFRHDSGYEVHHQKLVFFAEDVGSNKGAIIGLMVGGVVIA

B1: tissue kallikrein: serine protease that cleaves kininogen into kallidin; polypeptide SEQ ID NO:1 (Sus scrofa kallikrein 1), KLK1 from Sigma (protein, listed as Sus scrofa)
chain: MWSLVMRLALSLAGTGAAPPIQSRIIGGRECEKDSHPWQVAIYHYSSFQCGGVLVDPKWVLTAAHCKNDNYQVWLGRHNLFENEVTAQFFGVTADFPHPGFNLSLLKNHTKADGKDYSHDLMLLRLQSPAKITDAVKVLELPTQEPELGSTCQASGWGSIEPGPDDFEFPDEIQCVELTLLQNTFCADAHPDKVTESMLCAGYLPGGKDTCMGDSGGPLICNGMWQGITSWGHTPCGSANKPSIYTKLIFYLDWINDTITENP
modifications: 125I label in one form
Percent Cleavage of Amyloid Beta ([1]; KLK1 1 pg/mL, 3 hrs): 0%
Percent Cleavage of Amyloid Beta ([1]; KLK1 1 pg/mL, 18 hrs): 0%
Percent Cleavage of Amyloid Beta ([1]; KLK1 10 pg/mL, 3 hrs): 0%
Percent Cleavage of Amyloid Beta ([1]; KLK1 10 pg/mL, 18 hrs): 15%
Percent Cleavage of Amyloid Beta ([1]; KLK1 100 pg/mL, 3 hrs): 0%
Percent Cleavage of Amyloid Beta ([1]; KLK1 100 pg/mL, 18 hrs): 19.5%
Percent Cleavage of Amyloid Beta ([1]; KLK1 1 ng/mL, 3 hrs): 19.6%
Percent Cleavage of Amyloid Beta ([1]; KLK1 1 ng/mL, 18 hrs): 50%
Percent Cleavage of Amyloid Beta ([1]; KLK1 10 ng/mL, 3 hrs): 36.6%
Percent Cleavage of Amyloid Beta ([1]; KLK1 10 ng/mL, 18 hrs): 88.4%
Percent Cleavage of Amyloid Beta ([1]; KLK1 100 ng/mL, 3 hrs): 71.7%
Percent Cleavage of Amyloid Beta ([1]; KLK1 100 ng/mL, 18 hrs): 99.8%
Percent Cleavage of Amyloid Beta ([1]; KLK1 1 μg/mL, 3 hrs): 92.1%
Percent Cleavage of Amyloid Beta ([1]; KLK1 1 μg/mL, 18 hrs): 100%
cleavage of amyloid fibrils [2]: cleaves amyloid fibrils
